{"source": "patent US20090068207A1", "about": "“Compositions Containing Beta 2-Glycoprotein I-Derived Peptides for the Prevention and/or Treatment of Vascular Disease” (Vascular Biogenics Ltd., priority 2005, published 2009)", "molecules": {"B1": {"name": "Human β2 GPI: human beta2-glycoprotein I (SEQ ID NO: 10) purified from serum (protein)", "chain": "MISPVLILFSSFLCHVAIAGRTCPKPDDLPFSTVVPLKTFYEPGEEITYSCKPGYVSRGGMRKFICPLTGLWPINTLKCTPRVCPFAGILENGAVRYTTFEYPNTISFSCNTGFYLNGADSAKCTEEGKWSPELPVCAPIICPPPSIPTFATLRVYKPSAGNNSLYRDTAVFECLPQHAMFGNDTITCTTHGNWTKLPECREVKCPFPSRPDNGFVNYPAKPTLYYKDKATFGCHDGYSLDGPEEIECTKLGNWSAMPSCKASCKLPVKKATVVYQGERVKIQEKFKNGMLHGDKVSFFCKNKEKKCSYTEDAQCIDGTIEVPKCFKEHSSLAFWKTDASDVKPC"}}, "key": {"ApoE-KO mice": {"test_system": "ApoE-KO mice", "assay": "Aortic sinus lesion area after oral administration in ApoE-KO mice", "assay_type": "in vivo", "description": "Assessment of Atherosclerosis: Quantification of atherosclerotic fatty streak lesions was done by calculating the lesion size in the aortic sinus as previously described (16) and by calculating the lesion size in the aorta. Briefly, after perfusion with saline Tris EDTA, the heart and the aorta were removed from the animals and the peripheral fat cleaned carefully. The upper section of the heart was embedded in OCT medium (10.24% w/w polyvinyl alcohol; 4.26% w/w polyethylene glycol; 85.50% w/w nonreactive ingredients) and frozen. Every other section (10 μm thick) throughout the aortic sinus (400 μm) was taken for analysis. The distal portion of the aortic sinus was recognized by the three valve cusps that are the junctions of the aorta to the heart. […] Lesion areas per section were scored on a grid (17) by an observer counting unidentified, numbered specimens. The aorta was dissected from the heart and surrounding adventitious tissue was removed. Fixation of the aorta and Sudan staining of the vessels were performed as previously described (21).\nIn order to determine the protective effect of mucosal administration of β2GPI on development of atherosclerosis, adult ApoE-KO mice were treated with oral administration of human β2GPI. 20 week-old male ApoE-KO mice, having advanced atherosclerotic lesions were treated monthly with human β2GPI (50 μg/dose) or PBS (0.2 ml) in 5 oral administrations (by gavage, as described hereinabove) given every other day, for four months. Lesion area calculated from cryosections of the aortic sinus were compared between control untreated 20 week old mice, and mice following 16 weeks oral administration of β2GPI or PBS.\n10-11 week-old male ApoE-KO mice, having early atherosclerotic lesions, were treated with 5 oral administrations (by gavage, as described hereinabove) given every other day of human β2GPI peptide S-4 (SEQ ID NO: 14) or human β2GPI (50 μg/dose) or PBS (0.2 ml). Lesion areas calculated from cryosections of the aortic sinus were compared between control untreated, human β2GPI treated and S-4 human β2GPI-derived peptide treated mice at 8 weeks following the last oral administration of the antigens, or of PBS."}, "lymph node cells": {"test_system": "lymph node cells", "assay": "Lymph node cell proliferation (stimulation index) to oxLDL after oral administration", "assay_type": "in vivo, mice", "conditions": "oral, 3 doses of 100 μg; LDL-RD mice immunized with OxLDL; OxLDL challenge; mean ± S.E.", "method": "Proliferation was measured by the incorporation of [^3H] thymidine into DNA during the final 12 h of incubation. The results were computed as stimulation index: the ratio of the mean cpm of the antigen to the mean background cpm obtained in the absence of the antigen.\n[…] Three days after the final administration of peptides, the mice were immunized with OxLDL in incomplete Freund's adjuvant, as described in the Examples above, and lymph node cells assessed for antigen (OxLDL) stimulation of proliferation 10 days later. Proliferation was assessed by incorporation of thymidine, expressed as the Stimulation Index, as described."}}, "note": "Several values for one entry are separate records, joined by “and”; a condition that tells them apart may be missing. Identical values can stand only once."}
{"molecule": "B1", "values": [{"measurement": "Aortic sinus lesion (μm^2)", "setting": "ApoE-KO mice; End, oral 50 μg, 5 doses, ApoE-KO mice", "result": "90833 ± 9502", "unit": "μm^2"}, {"measurement": "reduction of progression of atherosclerotic lesions compared to PBS controls", "setting": "ApoE-KO mice; oral 50 μg, 5 doses, then 8 weeks of chow diet, 10-11 week-old ApoE-KO mice", "result": 47, "unit": "%"}, {"measurement": "inhibition of progression of atherosclerotic lesions as compared to PBS control", "setting": "ApoE-KO mice; oral 50 μg/dose, 5 administrations monthly for four months, 20 week-old ApoE-KO mice, 16 weeks", "result": "> 30% and 35%"}, {"measurement": "Stimulation index", "setting": "lymph node cells", "result": "38 ± 12"}]}
